Patent US7090834B1, “Vascular endothelial cell growth factor variants and uses thereof” (Genentech, Inc., priority 1999, dated 2006)
Changes are numbered by the printed parent chain. Names may count otherwise.

B1: LK-VRB-2s* (ligand, human, UniProt P15692-4 27-135, looked up)
chain: APMAEGGGQNHHEVVKFMDVYQRSYCHPIETLVDIFQEYPDEIEYIFKPSCVPLMRCGGCCNSEMRECVPTEESNITMQIMRIKPHQGQHIGEMSFLQHNKCECRPKKD
B2: LK-VRB-18s (ligand)
chain: B1 chain with M18E, Y21L, Y25S
B3: LK-VRB-6s: VEGF (1–109) variant with D63S/G65A/L66T (protein)
chain: B1 chain with M65A, R66T
B4: LK-VRB-19s (ligand, human, UniProt P15692-4 27-135, looked up)
chain: B1 chain with M18E, Q22R, Y25S
notes: one of the two is probably misprinted
B5: LK-VRB-4s: VEGF (1–109) variant with F17I/M18E/Y21F/Q22E/Y25I (protein)
chain: B1 chain with F17I, M18E, Y21F, Q22E, Y25I, S63D, M65G, R66L
B6: LK-VRB-3s: VEGF (1–109) variant with F17I/M18E/Y21F/Q22K/Y25S (protein)
chain: B1 chain with F17I, M18E, Y21F, Q22K, Y25S, S63D, M65G, R66L
B7: LK-VRB-5s: VEGF (1–109) variant with D63S/L66R (protein)
chain: B1 chain with M65G
B8: LK-VRB-17s (ligand)
chain: B1 chain with M18E, Y21L, Q22R
B9: LK-VRB-14s (ligand, human, UniProt P15692-4 27-135, looked up)
chain: B1 chain with Y21L, Q22R
B10: LK-VRB-23s (ligand, human, UniProt P15692-4 27-135, looked up)
chain: B1 chain with M18E, Y21L, Q22R, Y25S, S63D, M65G
B11: LK-VRB-20s (ligand, human, UniProt P15692-4 27-135, looked up)
chain: B1 chain with Y21L, Q22R, Y25S
B12: LK-VRB-12s (ligand, human, UniProt P15692-4 27-135, looked up)
chain: B1 chain with M18E, Q22R
B13: LK-VRB-13s (ligand, human, UniProt P15692-4 27-135, looked up)
chain: B1 chain with M18E, Y25S
B14: LK-VRB-26s (ligand, human, UniProt P15692-4 27-135, looked up)
chain: B1 chain with M18E, Y21L, Q22R, Y25S, S63D
B15: LK-VRB-10s (ligand, human, UniProt P15692-4 27-135, looked up)
chain: B1 chain with Y25S
B16: LK-VRB-22s (ligand, human, UniProt P15692-4 27-135, looked up)
chain: B1 chain with M18E, Y21L, Q22R, Y25S, S63D, R66L
B17: LK-VRB-25s (ligand, human, UniProt P15692-4 27-135, looked up)
chain: B1 chain with M18E, Y21L, Q22R, Y25S, M65G
B18: LK-VRB-16s (ligand, human, UniProt P15692-4 27-135, looked up)
chain: B1 chain with Q22R, Y25S
B19: LK-VRB-15s (ligand, human, UniProt P15692-4 27-135, looked up)
chain: B1 chain with Y21L, Y25S
B20: LK-VRB-11s (ligand, human, UniProt P15692-4 27-135, looked up)
chain: B1 chain with M18E, Y21L
B21: LK-VRB-24s (ligand, human, UniProt P15692-4 27-135, looked up)
chain: B1 chain with M18E, Y21L, Q22R, Y25S, R66L
B22: LK-VRB-21s (ligand, human, UniProt P15692-4 27-135, looked up)
chain: B1 chain with M18E, Y21L, Q22R, Y25S, M65G, R66L

How the values were obtained:
Flt-1 receptor = Flt-1 receptor binding ELISA (inhibition of biotinylated native VEGF binding to Flt-IgG); conditions: for Relative Binding Affinity, FLT-1 Receptor: ratio to native VEGF (8–109): second figure of the cell, fold less binding than native VEGF
Experimental: (§1) Receptor binding assays were performed in 96-well immunoplates (Maxisorp, Nunc-Immunoplate, Nalge Nunc International, Rochester, N.Y.). Each well was coated with 100 μl of a solution containing 2 μg/ml of rabbit F(ab′)2 to human IgG Fc (Jackson ImmunoResearch, West Grove, Pa.) in 50 mM carbonate buffer at pH 9.6 and incubated at 4° C. overnight. The supernatant was then discarded, the wells were washed three times in washing buffer (0.05% Tween 20 in PBS), and the plate was blocked (150 μl per well) with block buffer (0.5% BSA, 0.01% thimerosal in PBS) at room temperature for one hour. The supernatant was discarded, and the wells were washed.
The wells were filled with 100 μl of a solution containing Flt-IgG (a chimeric Flt-human Fc molecule) at 50 ng/ml in assay buffer (0.5% BSA, 0.05% Tween 20 in PBS). The wells were incubated at room temperature for 1 hour and then washed three times in wash buffer (0.05% Tween 20 in PBS).
Aliquots of the mixture (100 μl) were added to the precoated microtiter wells and the plate was incubated for 2 hours at room temperature. […] The wells were then incubated with 3, 3′, 5,5′-tetramethyl benzidine (0.2 g/liter, Kirkegaard & Perry Laboratories, Gaithersburg, Md.) for about 10 minutes at room temperature. Absorbance was read at 450 nm on a Vmax plate reader (Molecular Devices, Menlo Park, Calif.).
(§2) Titration curves were fit with a four-parameter nonlinear regression curve-fitting program (KaleidaGraph, Synergy Software, Reading, Pa.).

[1] = biological target: KDR receptor on HUVEC cells (human, UniProt P35968 20-1356); assay: cell-based or functional assay
KDR (1-3) = biological target: T1, KDR (1-3) (UniProt P35968 20-327, limits assumed); assay: competition ELISA vs biotinylated native VEGF (8-109) for KDR (1-3)
T1 construct: domain: domains 1 to 3; Genentech reagent; also called KDR (1-3) monomer; domains 1 to 3 of KDR
Experimental: as §1, with “containing 8” for “containing 2”, “of a monoclonal antibody” for “of rabbit F(ab′)2”, “to KDR known as MAKD5 (Genentech, South San Francisco, Calif.)” for “to human IgG Fc (Jackson ImmunoResearch, West Grove, Pa.)”, “was” for “was then”
Aliquots of this mixture (100 μl) were added to the precoated microtiter wells and the plate was incubated for 1 hour at room temperature. […] The wells were then incubated with 3, 3', 5,5'-tetramethyl benzidine (0.2 gram/liter; Kirkegaard & Perry Laboratories, Gaithersburg, Md.) for about 10 minutes at room temperature. Absorbance was read at 450 nm on a Vmax plate reader (Molecular Devices, Menlo Park, Calif.).
as §2

KDR receptor = KDR receptor (Homo sapiens, UniProt P35968); assay: KDR receptor binding ELISA (inhibition of biotinylated native VEGF (8–109) binding); conditions: second figure of the cell, variant midpoint concentration divided by that of native VEGF
Experimental: as §1, with “containing 8” for “containing 2”, “of a monoclonal antibody” for “of rabbit F(ab′)2”, “to KDR known as MAKD5 (Genentech, South San Francisco, Calif.)” for “to human IgG Fc (Jackson ImmunoResearch, West Grove, Pa.)”, “was” for “was then”
Aliquots of this mixture (100 μl) were added to the precoated microtiter wells and the plate was incubated for 1 hour at room temperature. […] The wells were then incubated with 3, 3′, 5,5′-tetramethyl benzidine (0.2 gram/liter; Kirkegaard & Perry Laboratories, Gaithersburg, Md.) for about 10 minutes at room temperature. Absorbance was read at 450 nm on a Vmax plate reader (Molecular Devices, Menlo Park, Calif.).
as §2

Chain of Flt-1 receptor (P17948 27-327 limits assumed): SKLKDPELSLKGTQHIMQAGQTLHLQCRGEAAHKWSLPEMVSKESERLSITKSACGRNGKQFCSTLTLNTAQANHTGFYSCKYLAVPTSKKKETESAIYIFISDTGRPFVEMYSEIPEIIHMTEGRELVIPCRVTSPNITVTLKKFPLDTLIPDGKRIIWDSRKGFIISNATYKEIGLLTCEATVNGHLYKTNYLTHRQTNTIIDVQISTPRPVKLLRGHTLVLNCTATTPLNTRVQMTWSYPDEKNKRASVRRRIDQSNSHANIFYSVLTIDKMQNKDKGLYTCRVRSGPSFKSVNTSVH
T1 sequence (P35968 20-327 limits assumed): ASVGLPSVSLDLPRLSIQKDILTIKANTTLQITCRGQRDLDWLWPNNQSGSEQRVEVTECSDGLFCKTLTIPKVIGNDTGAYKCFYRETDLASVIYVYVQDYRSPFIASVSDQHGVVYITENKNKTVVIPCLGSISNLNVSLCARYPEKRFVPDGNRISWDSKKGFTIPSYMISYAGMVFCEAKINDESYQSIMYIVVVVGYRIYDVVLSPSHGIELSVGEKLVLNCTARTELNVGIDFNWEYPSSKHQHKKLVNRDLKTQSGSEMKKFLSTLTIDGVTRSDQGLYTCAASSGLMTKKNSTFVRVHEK
Chain of KDR receptor (P35968 20-327 limits assumed): as above
Chain of KDR receptor on HUVEC cells (P35968 20-1356): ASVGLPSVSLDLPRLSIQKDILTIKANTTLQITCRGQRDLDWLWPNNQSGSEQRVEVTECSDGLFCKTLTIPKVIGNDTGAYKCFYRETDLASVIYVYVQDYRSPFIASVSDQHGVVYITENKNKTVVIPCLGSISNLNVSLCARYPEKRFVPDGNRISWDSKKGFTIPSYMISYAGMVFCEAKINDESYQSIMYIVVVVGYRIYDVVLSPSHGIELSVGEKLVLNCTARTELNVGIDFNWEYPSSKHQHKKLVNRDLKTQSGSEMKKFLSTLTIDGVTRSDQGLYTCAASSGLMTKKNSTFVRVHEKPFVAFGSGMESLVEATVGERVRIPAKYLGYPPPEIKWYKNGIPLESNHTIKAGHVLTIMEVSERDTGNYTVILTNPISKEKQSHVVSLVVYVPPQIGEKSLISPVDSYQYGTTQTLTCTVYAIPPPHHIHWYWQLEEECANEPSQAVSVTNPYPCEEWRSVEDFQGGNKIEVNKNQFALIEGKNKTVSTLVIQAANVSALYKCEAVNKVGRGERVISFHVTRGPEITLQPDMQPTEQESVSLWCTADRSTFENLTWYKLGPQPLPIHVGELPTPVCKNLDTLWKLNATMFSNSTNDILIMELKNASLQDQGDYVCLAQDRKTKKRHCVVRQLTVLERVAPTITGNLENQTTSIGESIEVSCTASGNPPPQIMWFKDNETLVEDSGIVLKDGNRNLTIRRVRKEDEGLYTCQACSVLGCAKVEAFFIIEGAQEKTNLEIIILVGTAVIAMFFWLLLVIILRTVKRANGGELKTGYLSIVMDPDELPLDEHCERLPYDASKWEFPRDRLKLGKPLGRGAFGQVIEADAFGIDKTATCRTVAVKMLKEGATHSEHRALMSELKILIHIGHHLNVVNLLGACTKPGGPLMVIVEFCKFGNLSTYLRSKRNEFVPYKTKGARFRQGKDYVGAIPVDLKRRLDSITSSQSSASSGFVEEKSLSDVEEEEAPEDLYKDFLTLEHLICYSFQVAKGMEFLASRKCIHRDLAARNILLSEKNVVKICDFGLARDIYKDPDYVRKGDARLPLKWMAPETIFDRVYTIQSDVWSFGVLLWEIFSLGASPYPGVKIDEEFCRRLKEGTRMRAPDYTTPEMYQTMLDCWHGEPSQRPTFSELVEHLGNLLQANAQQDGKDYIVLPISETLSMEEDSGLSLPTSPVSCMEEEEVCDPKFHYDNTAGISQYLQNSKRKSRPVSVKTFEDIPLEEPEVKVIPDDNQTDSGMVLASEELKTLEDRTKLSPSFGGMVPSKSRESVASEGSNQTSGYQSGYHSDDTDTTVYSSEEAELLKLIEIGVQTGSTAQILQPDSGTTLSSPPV

Molecule | IC50 (Flt-1 receptor; first figure of the cell, Flt-IgG, read-out: Relative Binding Affinity, FLT-1 Receptor: concentration at midpoint absorbance) | Endothelial Cell Proliferation Activity (HUVEC, 3H-thymidine) [1] | IC50 (KDR (1-3)) | relative binding affinity (ratio to native VEGF (8-109)) (KDR (1-3)) | Relative Binding Affinity, KDR Receptor: ratio to native VEGF (8–109) (KDR receptor) | Relative Binding Affinity, FLT-1 Receptor: ratio to native VEGF (8–109) (Flt-1 receptor)
LK-VRB-2s*: VEGF (1–109) variant with D63S/G65M/L66R; KDR selective variant | > 400 nM | – | – | – | – | –
B1 | – | 0.1 ratio to native VEGF (8-109) | – | – | – | –
B2 | – | – | 130 nM | 130 ratio | – | –
B3 | – | – | – | – | 0.5 nM/0.5 | –
B4 | – | – | – | 7 ratio | 7 nM/7 | />35000
B5 | – | – | – | – | 1 nM/1 | –
B6 | – | – | – | – | 1 nM/1 | –
B7 | – | – | – | – | 1 nM/1 | –
B8 | – | – | – | 130 ratio | – | />1900
B9 | – | – | – | 0.5 ratio | 0.5 nM/0.5 | />2900
B10 | – | – | – | 11 ratio | 11 nM/11 | />8500
B11 | – | – | – | 2 ratio | 2 nM/2 | />10000
B12 | – | – | – | 0.4 ratio | 0.4 nM/0.4 | />5600
B13 | – | – | – | 14 ratio | 14 nM/14 | />14000
B14 | – | – | – | 23 ratio | 23 nM/23 | />25000
B15 | – | – | – | 0.5 ratio | 0.5 nM/0.5 | />2400
B16 | – | – | – | 4 ratio | 4 nM/4 | />30
B17 | – | – | – | 4 ratio | 4 nM/4 | />12000
B18 | – | – | – | 0.6 ratio | 0.6 nM/0.6 | />1400
B19 | – | – | – | 2 ratio | 2 nM/2 | />21000
B20 | – | – | – | 2 ratio | 2 nM/2 | />14000
B21 | – | – | – | 10 ratio | 10 nM/10 | />18000
B22 | – | – | – | 3 ratio | 3 nM/3 | />5600
